Patent US8637016

Target: EphA3 antigen (Homo sapiens (Human)) (UniProt P29320)
Test: ELISA on EphA3 antigen

UniProt P29320, sequence (P29320 21-541 limits assumed, form in doubt): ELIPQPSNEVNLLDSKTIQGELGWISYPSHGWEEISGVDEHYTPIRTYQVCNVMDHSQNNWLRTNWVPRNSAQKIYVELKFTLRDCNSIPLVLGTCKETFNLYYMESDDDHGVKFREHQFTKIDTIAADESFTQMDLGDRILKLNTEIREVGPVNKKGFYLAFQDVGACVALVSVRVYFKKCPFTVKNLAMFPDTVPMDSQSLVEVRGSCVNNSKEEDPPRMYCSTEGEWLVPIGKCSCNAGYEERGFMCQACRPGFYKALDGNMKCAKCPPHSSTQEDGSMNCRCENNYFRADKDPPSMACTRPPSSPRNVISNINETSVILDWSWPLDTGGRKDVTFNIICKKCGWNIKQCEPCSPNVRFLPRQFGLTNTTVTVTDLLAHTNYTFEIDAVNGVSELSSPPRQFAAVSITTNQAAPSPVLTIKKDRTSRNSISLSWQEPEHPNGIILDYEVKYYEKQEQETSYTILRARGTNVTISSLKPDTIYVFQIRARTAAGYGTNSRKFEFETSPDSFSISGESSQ

AFFINITY: 2.5 nM
Substance: monoclonal antibody IIIA4
